Test results as given in the supplement of paper PMC10065799, “High-throughput profiling of sequence recognition by tyrosine kinases and SH2 domains using bacterial peptide display” (eLife, 2023).

What was measured:
AncSZ = test: phosphorylation enrichment, bacterial display (enrichment ratio); higher = better substrate or ligand; peptides without Tyr show the background
EPHB1 = EPHB1 (UniProt P54762); test: as above
EPHB2 = EPHB2 (UniProt P29323); test: as above
FGFR1 = FGFR1 (UniProt P11362); test: as above
FGFR3 = FGFR3 (UniProt P22607); test: as above
Fer (mouse) = test: as above
Fes = Fes (UniProt P07332); test: as above
Fyn = Fyn (UniProt P06241); test: as above
Hck = Hck (UniProt P08631); test: as above
Jak2 = Jak2 (UniProt O60674); test: as above
MERTK = MERTK (UniProt Q12866); test: as above
c-Abl (mouse) = test: as above
c-Src = test: as above
Grb2 SH2 = Grb2 SH2 (UniProt P62993); test: SH2 binding enrichment of the phosphorylated peptide, bacterial display (enrichment ratio); higher = better substrate or ligand; peptides without Tyr show the background
SHP2-C SH2 = test: as above
c-Src SH2 = test: as above
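For SH2 binding enrichment of the phosphorylated peptide, bacterial display in this document: peptide library displayed on the E. coli surface as eCPX fusions, selected cells deep-sequenced, score is each peptide's frequency after selection divided by its frequency in the input.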
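For phosphorylation enrichment, bacterial display in this document: 11-residue human phosphosite peptides and single-mutation variants displayed on the E. coli surface, counted by deep sequencing, each peptide's frequency after selection divided by its frequency in the unselected input library; frequency after pTyr selection over input frequency; kinase dosed for 20-30% of maximal phosphorylation in three min.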

Fyn, sequence (P06241 whole entry, looked up): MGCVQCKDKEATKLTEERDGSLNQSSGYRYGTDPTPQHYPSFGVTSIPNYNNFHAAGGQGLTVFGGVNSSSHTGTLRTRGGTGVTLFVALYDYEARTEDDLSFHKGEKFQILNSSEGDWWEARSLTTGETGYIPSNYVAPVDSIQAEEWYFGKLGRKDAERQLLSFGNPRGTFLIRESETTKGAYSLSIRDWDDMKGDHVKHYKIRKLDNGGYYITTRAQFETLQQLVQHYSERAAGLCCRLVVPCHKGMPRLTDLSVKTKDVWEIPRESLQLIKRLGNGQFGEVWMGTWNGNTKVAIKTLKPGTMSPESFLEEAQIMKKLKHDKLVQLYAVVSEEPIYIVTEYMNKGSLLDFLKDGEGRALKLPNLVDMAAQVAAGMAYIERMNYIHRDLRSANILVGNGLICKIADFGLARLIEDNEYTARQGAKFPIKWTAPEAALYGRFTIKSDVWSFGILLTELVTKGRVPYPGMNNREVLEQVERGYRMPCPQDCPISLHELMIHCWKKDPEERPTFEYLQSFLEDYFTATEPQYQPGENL
FGFR1, sequence (P11362 whole entry, looked up): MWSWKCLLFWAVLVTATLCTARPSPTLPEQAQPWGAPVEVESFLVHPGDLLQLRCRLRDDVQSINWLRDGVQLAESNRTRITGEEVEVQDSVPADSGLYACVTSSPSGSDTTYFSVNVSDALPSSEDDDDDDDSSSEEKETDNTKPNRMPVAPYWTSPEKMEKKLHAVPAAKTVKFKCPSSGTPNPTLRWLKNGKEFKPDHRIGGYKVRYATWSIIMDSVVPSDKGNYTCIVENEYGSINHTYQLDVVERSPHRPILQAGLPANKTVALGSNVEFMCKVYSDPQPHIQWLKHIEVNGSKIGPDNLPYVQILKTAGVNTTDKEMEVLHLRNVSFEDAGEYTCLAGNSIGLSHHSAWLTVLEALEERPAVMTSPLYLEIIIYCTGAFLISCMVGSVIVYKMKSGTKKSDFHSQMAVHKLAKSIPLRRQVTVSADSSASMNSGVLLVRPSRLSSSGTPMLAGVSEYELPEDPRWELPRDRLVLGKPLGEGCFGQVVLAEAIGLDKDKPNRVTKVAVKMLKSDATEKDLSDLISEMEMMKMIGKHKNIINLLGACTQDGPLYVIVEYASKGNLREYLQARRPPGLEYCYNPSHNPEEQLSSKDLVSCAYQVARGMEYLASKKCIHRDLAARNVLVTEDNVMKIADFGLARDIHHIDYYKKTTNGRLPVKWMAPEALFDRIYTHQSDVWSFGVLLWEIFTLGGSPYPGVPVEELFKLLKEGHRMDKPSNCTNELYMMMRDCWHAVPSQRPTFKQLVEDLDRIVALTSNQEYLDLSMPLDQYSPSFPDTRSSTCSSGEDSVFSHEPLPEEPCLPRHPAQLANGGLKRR
EPHB1, sequence (P54762 whole entry, looked up): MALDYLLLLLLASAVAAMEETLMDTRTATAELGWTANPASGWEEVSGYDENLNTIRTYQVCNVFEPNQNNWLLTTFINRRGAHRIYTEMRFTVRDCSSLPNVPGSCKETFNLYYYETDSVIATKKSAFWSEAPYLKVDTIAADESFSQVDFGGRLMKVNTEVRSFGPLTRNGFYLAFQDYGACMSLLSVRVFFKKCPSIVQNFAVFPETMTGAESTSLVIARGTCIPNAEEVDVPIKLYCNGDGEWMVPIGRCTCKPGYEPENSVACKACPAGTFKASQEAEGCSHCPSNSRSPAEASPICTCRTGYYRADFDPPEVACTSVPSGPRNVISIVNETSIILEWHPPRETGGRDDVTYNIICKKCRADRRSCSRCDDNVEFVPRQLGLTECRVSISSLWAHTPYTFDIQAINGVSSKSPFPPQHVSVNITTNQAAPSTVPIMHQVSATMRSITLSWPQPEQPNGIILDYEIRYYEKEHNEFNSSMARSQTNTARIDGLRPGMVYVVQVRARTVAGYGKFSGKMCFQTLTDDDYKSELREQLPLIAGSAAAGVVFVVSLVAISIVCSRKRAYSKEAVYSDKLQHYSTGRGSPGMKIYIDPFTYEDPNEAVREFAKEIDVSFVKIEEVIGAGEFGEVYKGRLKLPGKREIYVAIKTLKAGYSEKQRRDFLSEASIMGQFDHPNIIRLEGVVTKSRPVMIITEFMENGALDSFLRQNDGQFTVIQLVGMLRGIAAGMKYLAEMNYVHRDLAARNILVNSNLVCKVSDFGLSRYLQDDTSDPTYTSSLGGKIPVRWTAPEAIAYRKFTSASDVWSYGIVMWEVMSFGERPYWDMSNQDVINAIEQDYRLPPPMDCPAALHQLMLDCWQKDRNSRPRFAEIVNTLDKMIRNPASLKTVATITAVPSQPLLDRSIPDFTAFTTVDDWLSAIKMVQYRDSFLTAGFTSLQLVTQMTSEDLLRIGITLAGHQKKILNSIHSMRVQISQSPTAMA
Grb2 SH2, sequence (P62993 whole entry, looked up): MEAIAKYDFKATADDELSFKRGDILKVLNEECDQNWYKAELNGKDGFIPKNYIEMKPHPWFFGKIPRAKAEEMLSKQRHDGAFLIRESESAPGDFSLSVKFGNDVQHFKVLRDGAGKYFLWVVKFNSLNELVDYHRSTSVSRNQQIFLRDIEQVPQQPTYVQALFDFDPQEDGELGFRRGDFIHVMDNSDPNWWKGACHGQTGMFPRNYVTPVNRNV
Jak2, sequence (O60674 whole entry, looked up): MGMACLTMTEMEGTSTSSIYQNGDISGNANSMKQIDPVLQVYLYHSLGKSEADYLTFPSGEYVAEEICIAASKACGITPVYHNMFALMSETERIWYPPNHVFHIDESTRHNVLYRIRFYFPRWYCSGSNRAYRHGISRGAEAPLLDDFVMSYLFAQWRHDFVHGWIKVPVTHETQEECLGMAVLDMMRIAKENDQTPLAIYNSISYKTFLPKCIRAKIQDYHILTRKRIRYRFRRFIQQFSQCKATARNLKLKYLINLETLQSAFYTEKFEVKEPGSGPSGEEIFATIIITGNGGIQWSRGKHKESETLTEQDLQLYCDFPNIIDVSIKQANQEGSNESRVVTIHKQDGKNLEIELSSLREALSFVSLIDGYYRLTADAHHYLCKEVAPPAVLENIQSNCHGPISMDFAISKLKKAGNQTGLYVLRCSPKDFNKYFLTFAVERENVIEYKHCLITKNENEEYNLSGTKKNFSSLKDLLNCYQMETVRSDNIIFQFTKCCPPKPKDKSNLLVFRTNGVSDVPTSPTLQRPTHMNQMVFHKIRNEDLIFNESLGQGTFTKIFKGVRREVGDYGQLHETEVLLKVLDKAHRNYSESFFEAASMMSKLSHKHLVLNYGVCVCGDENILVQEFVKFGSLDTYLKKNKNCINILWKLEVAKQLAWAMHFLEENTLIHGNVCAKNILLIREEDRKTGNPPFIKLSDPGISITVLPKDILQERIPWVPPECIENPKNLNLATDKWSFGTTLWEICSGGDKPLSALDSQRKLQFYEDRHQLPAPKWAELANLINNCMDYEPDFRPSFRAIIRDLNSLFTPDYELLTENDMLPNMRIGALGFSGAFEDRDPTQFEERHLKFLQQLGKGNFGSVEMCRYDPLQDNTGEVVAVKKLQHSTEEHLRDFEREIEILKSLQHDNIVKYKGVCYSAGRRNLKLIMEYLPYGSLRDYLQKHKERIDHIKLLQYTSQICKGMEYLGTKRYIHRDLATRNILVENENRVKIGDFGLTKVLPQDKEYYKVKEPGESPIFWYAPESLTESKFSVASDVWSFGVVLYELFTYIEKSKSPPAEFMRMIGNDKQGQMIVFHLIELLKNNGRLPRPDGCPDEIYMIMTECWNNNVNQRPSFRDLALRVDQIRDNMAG
Fes, sequence (P07332 whole entry, looked up): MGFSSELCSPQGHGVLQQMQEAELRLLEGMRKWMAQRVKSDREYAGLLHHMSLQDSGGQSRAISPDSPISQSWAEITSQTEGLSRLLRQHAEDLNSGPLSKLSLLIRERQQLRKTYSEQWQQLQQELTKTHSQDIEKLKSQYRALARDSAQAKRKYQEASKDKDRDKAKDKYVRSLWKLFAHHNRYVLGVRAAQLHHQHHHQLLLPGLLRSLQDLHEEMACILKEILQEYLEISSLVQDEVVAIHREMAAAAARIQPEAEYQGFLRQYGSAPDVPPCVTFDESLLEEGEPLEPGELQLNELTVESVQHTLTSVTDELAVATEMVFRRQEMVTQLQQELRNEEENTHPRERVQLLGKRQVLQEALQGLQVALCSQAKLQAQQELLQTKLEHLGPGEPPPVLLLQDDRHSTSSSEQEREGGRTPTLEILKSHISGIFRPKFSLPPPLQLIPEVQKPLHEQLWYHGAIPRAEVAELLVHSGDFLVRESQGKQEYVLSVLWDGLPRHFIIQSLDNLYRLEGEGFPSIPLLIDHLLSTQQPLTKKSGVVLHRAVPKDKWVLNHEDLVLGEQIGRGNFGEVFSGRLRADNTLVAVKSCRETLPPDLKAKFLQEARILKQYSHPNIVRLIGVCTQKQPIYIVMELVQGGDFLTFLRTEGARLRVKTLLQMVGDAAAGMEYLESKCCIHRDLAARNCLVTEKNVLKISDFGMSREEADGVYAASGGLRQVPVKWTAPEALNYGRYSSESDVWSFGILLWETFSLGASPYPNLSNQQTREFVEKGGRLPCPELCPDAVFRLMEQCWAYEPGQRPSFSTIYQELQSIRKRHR
Hck, sequence (P08631 whole entry, looked up): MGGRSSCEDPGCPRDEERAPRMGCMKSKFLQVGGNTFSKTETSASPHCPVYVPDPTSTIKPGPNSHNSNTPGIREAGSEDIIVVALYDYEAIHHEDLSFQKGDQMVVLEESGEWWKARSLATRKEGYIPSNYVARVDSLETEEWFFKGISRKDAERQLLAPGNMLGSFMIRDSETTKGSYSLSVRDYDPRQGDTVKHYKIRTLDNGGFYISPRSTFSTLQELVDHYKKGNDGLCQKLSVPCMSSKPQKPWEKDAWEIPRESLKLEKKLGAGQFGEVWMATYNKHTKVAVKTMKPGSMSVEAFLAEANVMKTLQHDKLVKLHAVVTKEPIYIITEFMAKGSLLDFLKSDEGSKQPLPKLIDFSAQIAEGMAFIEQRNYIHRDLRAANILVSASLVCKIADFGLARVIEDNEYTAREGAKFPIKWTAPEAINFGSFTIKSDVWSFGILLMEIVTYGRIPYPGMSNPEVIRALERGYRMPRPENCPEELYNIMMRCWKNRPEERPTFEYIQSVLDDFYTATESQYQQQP

Row | Sequence | phosphorylation enrichment (AncSZ) | phosphorylation enrichment (EPHB1) | phosphorylation enrichment (EPHB2) | phosphorylation enrichment (FGFR1) | phosphorylation enrichment (FGFR3) | phosphorylation enrichment (Fer (mouse)) | phosphorylation enrichment (Fes) | phosphorylation enrichment (Fyn) | phosphorylation enrichment (Hck) | phosphorylation enrichment (Jak2) | phosphorylation enrichment (MERTK) | phosphorylation enrichment (c-Abl (mouse)) | phosphorylation enrichment (c-Src) | SH2 binding enrichment (Grb2 SH2) | SH2 binding enrichment (SHP2-C SH2) | SH2 binding enrichment (c-Src SH2)
1 | CTTIPYNFMCN [TP53_Y234_H233P_YF] | 0.945 | 0.449 | 0.514 | 0.515 | 0.726 | 0.424 | 0.926 | 0.48 | 0.561 | 0.718 | 0.482 | 0.528 | 0.753 | 0.927 | 0.994 | 2.07
2 | DAPVVYLGSFR [PRAG1_Y132] | 0.773 | 0.402 | 0.449 | 0.418 | 0.52 | 0.448 | 0.906 | 0.436 | 0.575 | 0.73 | 0.476 | 0.743 | 0.449 | 1.08 | 5.6 | 0.53
3 | DASENYFVTDS [TMEM240_Y77] | 1.41 | 1.44 | 0.886 | 1.35 | 1.44 | 0.517 | 1.23 | 0.444 | 0.659 | 1.37 | 0.516 | 0.86 | 0.492 | 0.977 | 0.759 | 0.576
4 | DCAAIYGSEPE [AKR1A1_Y50_N52S] | 1.14 | 0.572 | 0.578 | 0.453 | 0.726 | 0.599 | 1.34 | 0.968 | 0.844 | 1.46 | 0.474 | 0.791 | 1.4 | 0.927 | 0.553 | 0.633
5 | DDEVFYSPLSL [OTC_Y317_R320L] | 2 | 0.495 | 0.598 | 3.14 | 2.76 | 11.1 | 1.2 | 5.08 | 7.22 | 1.28 | 5.35 | 2.96 | 5.55 | 0.777 | 0.588 | 0.38
6 | DDPRRYQKFGF [OAS1_Y362_YF] | 0.593 | 0.376 | 0.425 | 0.438 | 0.528 | 0.414 | 0.667 | 0.502 | 0.398 | 0.674 | 0.475 | 0.418 | 0.321 | 1.15 | 0.909 | 0.467
7 | DEEDTYTMPST [PTK2_Y407] | 3.8 | 0.528 | 0.627 | 0.568 | 0.776 | 0.691 | 1.29 | 3.77 | 1.83 | 1.25 | 0.657 | 1.12 | 2.94 | 0.869 | 0.563 | 0.469
8 | DELDKYSEALK [TPM1_Y60] | 1.19 | 0.469 | 0.577 | 0.451 | 0.59 | 0.472 | 1.03 | 0.443 | 0.489 | 0.977 | 0.395 | 0.676 | 0.422 | 0.889 | 0.554 | 0.655
9 | DEQKKYFNAMK [SCN5A_Y1494_E1489D_YF] | 0.68 | 0.374 | 0.428 | 0.592 | 0.474 | 0.437 | 0.883 | 0.394 | 0.419 | 0.952 | 0.448 | 0.815 | 0.548 | 0.856 | 1.03 | 0.554
10 | DEYLEHRRIVG [FAM221A_Y20_Y20H] | 0.764 | 1.95 | 0.679 | 0.6 | 0.611 | 0.506 | 0.883 | 0.399 | 0.489 | 0.526 | 0.38 | 0.434 | 0.347 | 0.918 | 0.611 | 0.484
11 | DFNPNYCFAGK [ALK_Y1096_YF] | 1.67 | 1.72 | 0.989 | 0.742 | 0.887 | 0.742 | 1.28 | 0.549 | 0.444 | 1.21 | 1.04 | 0.921 | 0.684 | 0.792 | 0.625 | 0.533
12 | DFPGNYSGYDD [POLR1C_Y33] | 1.3 | 1.31 | 1.3 | 0.671 | 0.913 | 0.65 | 1.24 | 0.675 | 0.573 | 1.17 | 0.62 | 0.976 | 0.612 | 0.853 | 0.582 | 2.03
13 | DFTEAYNPKIK [CLK1_Y305_YF] | 0.874 | 0.509 | 0.572 | 0.464 | 0.649 | 0.466 | 1.11 | 0.453 | 0.505 | 0.988 | 0.501 | 0.893 | 0.571 | 0.947 | 1.11 | 0.533
14 | DGPVNYEEFVQ [CALM2_Y139_Q136P] | 1.17 | 1.27 | 1.08 | 0.514 | 0.725 | 0.601 | 1.12 | 0.482 | 0.529 | 1.18 | 0.474 | 0.748 | 0.532 | 0.848 | 0.656 | 0.418
15 | DGQFVYKLTDF [TBK1_Y153_S151F] | 1.06 | 0.467 | 0.587 | 0.498 | 0.649 | 0.739 | 1.01 | 2.44 | 0.832 | 0.799 | 0.366 | 0.482 | 2.32 | 0.859 | 0.773 | 0.481
16 | DILASYLDKVR [KRT12_Y139_R135I] | 0.54 | 0.364 | 0.437 | 0.407 | 0.594 | 0.284 | 0.96 | 0.457 | 0.403 | 0.505 | 0.364 | 0.37 | 0.375 | 0.952 | 0.824 | 0.656
17 | DIMDLYNQPEL [IL36A_Y96_P101L] | 1.54 | 0.559 | 0.613 | 0.567 | 0.943 | 0.589 | 1.28 | 0.932 | 1.29 | 1.11 | 0.511 | 0.868 | 0.99 | 0.764 | 0.768 | 0.556
18 | DIRAQYDELAQ [KRT18_Y256_R261Q] | 1.08 | 0.546 | 0.574 | 0.49 | 0.753 | 0.45 | 1.06 | 0.576 | 0.574 | 0.864 | 0.582 | 0.614 | 0.473 | 0.633 | 0.687 | 7.43
19 | DISEPYKVFRI [IRF8_Y107_YF] | 1.11 | 0.543 | 0.529 | 0.552 | 0.618 | 0.565 | 1.17 | 0.628 | 0.563 | 0.78 | 0.582 | 1 | 0.628 | 0.826 | 0.497 | 0.42
20 | DKHGQYLIGHG [EPHB4_Y581] | 0.652 | 0.397 | 0.376 | 0.482 | 0.576 | 0.465 | 0.645 | 0.449 | 0.475 | 0.599 | 0.378 | 0.525 | 0.436 | 0.905 | 0.565 | 0.485
21 | DKWFLYKMRDI [CPS1_Y879] | 1.14 | 0.671 | 0.57 | 0.466 | 0.77 | 0.505 | 1.36 | 0.444 | 0.469 | 1.32 | 0.311 | 0.963 | 0.403 | 0.838 | 0.661 | 0.373
22 | DLAGRYFALRS [CKB_Y173_K177R_YF] | 0.587 | 0.419 | 0.371 | 0.447 | 0.394 | 0.36 | 0.579 | 0.38 | 0.4 | 0.761 | 0.476 | 0.554 | 0.347 | 0.905 | 0.628 | 0.738
23 | DLREKYMDCGG [HAP1_Y440] | 0.919 | 0.716 | 0.625 | 0.507 | 0.726 | 0.586 | 1.1 | 0.499 | 0.55 | 0.913 | 0.442 | 0.738 | 0.389 | 0.938 | 0.596 | 0.668
24 | DLWEKYMDCGG [HAP1_Y440_R437W] | 1.44 | 0.976 | 0.775 | 0.6 | 0.854 | 0.578 | 1.42 | 0.509 | 0.596 | 1.12 | 0.458 | 0.738 | 0.436 | 0.768 | 0.617 | 0.55
25 | DMGAQYAAASP [ARID1B_Y483] | 0.647 | 0.486 | 0.552 | 0.48 | 0.584 | 0.652 | 0.71 | 0.411 | 0.462 | 0.653 | 0.434 | 0.652 | 0.504 | 0.67 | 0.647 | 0.63
26 | DNEAIYDICRR [TUBA4A_Y210] | 2.79 | 4.07 | 4.97 | 0.671 | 0.843 | 10.7 | 1.45 | 8.6 | 7.21 | 1.03 | 5.98 | 16.1 | 5.7 | 0.613 | 0.546 | 0.516
27 | DNQYAYLKAII [HNF4A_Y288_E285Q] | 1.19 | 0.562 | 0.549 | 2.72 | 1.91 | 0.64 | 1.09 | 0.456 | 1.4 | 1.11 | 1.58 | 3.75 | 0.551 | 0.769 | 0.826 | 0.531
28 | DPADRYLTEQC [CDKL5_Y286] | 0.986 | 0.485 | 0.558 | 0.458 | 0.731 | 0.53 | 1.12 | 0.478 | 0.506 | 0.947 | 0.446 | 0.713 | 0.523 | 0.918 | 0.747 | 0.507
29 | DPHECYAEVFD [ALB_Y394_K396E] | 1.32 | 0.871 | 0.807 | 1.2 | 1.25 | 0.617 | 1.55 | 0.753 | 0.944 | 1.01 | 0.626 | 0.817 | 0.775 | 1.1 | 0.954 | 1.23
